How the values were obtained:
Assay in all cases: SPR
Details in all cases: both partners purified
[1] = molecular target: T1, Recombinant Human GRP75/HSPA9B/Mortalin His Protein (human, UniProt P38646 47-679)
T1 construct: source: bought: Novus Biologicals, LLC/R&D Systems

[2] = molecular target: T2, Recombinant Human Vimentin Protein, CF (human, UniProt P08670 1-466)
T2 construct: source: bought: Novus Biologicals, LLC/R&D Systems

[3] = molecular target: T1, Recombinant Human GRP75/HSPA9B/Mortalin …; remark: listed apart in the source
[4] = molecular target: T2, Recombinant Human Vimentin Protein, CF; remark: listed apart in the source

T1 sequence (P38646 47-679): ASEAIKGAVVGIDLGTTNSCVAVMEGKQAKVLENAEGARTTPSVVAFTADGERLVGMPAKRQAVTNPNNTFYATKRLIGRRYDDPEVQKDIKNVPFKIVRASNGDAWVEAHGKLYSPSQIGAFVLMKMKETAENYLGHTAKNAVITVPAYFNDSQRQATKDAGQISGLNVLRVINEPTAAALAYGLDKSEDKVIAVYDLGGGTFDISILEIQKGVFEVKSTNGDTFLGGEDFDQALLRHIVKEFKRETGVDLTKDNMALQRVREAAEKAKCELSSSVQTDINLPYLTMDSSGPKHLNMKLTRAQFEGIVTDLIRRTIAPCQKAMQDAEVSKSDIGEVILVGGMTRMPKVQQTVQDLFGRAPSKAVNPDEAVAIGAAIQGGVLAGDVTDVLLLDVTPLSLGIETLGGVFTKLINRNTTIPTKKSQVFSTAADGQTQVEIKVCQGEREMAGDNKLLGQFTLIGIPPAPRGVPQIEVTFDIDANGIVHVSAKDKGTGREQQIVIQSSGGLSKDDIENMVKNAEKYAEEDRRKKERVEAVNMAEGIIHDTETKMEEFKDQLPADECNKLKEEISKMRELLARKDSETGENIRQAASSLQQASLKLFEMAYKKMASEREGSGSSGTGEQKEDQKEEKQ
T2 sequence (P08670 whole entry): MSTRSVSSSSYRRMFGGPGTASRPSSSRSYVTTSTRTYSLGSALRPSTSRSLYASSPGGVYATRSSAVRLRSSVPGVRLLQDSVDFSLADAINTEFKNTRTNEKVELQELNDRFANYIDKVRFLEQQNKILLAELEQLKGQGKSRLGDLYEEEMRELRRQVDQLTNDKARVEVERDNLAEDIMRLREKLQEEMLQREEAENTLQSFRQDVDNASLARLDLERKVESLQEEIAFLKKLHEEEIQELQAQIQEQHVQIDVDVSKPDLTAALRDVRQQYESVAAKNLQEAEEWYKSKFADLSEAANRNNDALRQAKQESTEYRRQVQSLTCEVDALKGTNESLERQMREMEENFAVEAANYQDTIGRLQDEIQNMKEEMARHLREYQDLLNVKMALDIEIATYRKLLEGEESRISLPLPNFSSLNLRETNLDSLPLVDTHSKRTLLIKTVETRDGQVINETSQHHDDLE

B1: HIV-1 Nef protein (natural protein)
chain: MGGKWSKSSVVGWPTVRERMRRAEPAADGVGAASRDLEKHGAITSSNTAATNAACAWLEAQEEEEVGFPVTPQVPLRPMTYKAAVDLSHFLKEKGGLEGLIHSQRRQDILDLWIYHTQGYFPDWQNYTPGPGVRYPLTFGWCYKLVPVEPDKVEEANKGENTSLLHPVSLHGMDDPEREVLEWRFDSRLAFHHVARELHPEYFKNC
notes: also called full Nef protein
Binder B1 has a Kd [1] of 2.1 nM, a Kd [2] of 0.2 nM and a Kd [3] of 3.16 nM. For the same binder, the Kd [4] was 0.75 nM.

Source: paper PMC12469269, “Investigating SMR Peptide Interactions with Breast Cancer-Associated Proteins” (International Journal of Molecular Sciences, 2025)
